Biological target: binding partner of C5A (XPA23)
Assay: Biacore K-off

| fold difference in affinity vs original [fold] | Binder |
| --- | --- |
| 1.07 | C5A (XPA23) VL Q27D (antibody, V domains shown) VH: EVQLLESGGGLVQPGGSLRLSCAASGFTFSKYFMFWVRQAPGKGLEWVSVISPSGGMTRYADSVKGRFTISRDNSKNTLYLQMNSLRAEDTAVYYCARVGYGGNSDYWGQGTLVTVSS VL: DIQMTQSPSSVSASVGDRLTIICRASDDINRWLAWYQQTPGNAPKLLIHSATSLQSGVPSRFSGSGSGTDFTLTINSLQPEDFATYYCQQADSFPLTFGGGTKVEIK |
| 1.09 | C5A (XPA23) VL Q27H (antibody, V domains shown) VH: EVQLLESGGGLVQPGGSLRLSCAASGFTFSKYFMFWVRQAPGKGLEWVSVISPSGGMTRYADSVKGRFTISRDNSKNTLYLQMNSLRAEDTAVYYCARVGYGGNSDYWGQGTLVTVSS VL: DIQMTQSPSSVSASVGDRLTIICRASHDINRWLAWYQQTPGNAPKLLIHSATSLQSGVPSRFSGSGSGTDFTLTINSLQPEDFATYYCQQADSFPLTFGGGTKVEIK |
| 0.6 | C5A (XPA23) VL N30Q (antibody, V domains shown) VH: EVQLLESGGGLVQPGGSLRLSCAASGFTFSKYFMFWVRQAPGKGLEWVSVISPSGGMTRYADSVKGRFTISRDNSKNTLYLQMNSLRAEDTAVYYCARVGYGGNSDYWGQGTLVTVSS VL: DIQMTQSPSSVSASVGDRLTIICRASQDIQRWLAWYQQTPGNAPKLLIHSATSLQSGVPSRFSGSGSGTDFTLTINSLQPEDFATYYCQQADSFPLTFGGGTKVEIK |
| 0.94 | C5A (XPA23) VL D28R (antibody, V domains shown) VH: EVQLLESGGGLVQPGGSLRLSCAASGFTFSKYFMFWVRQAPGKGLEWVSVISPSGGMTRYADSVKGRFTISRDNSKNTLYLQMNSLRAEDTAVYYCARVGYGGNSDYWGQGTLVTVSS VL: DIQMTQSPSSVSASVGDRLTIICRASQRINRWLAWYQQTPGNAPKLLIHSATSLQSGVPSRFSGSGSGTDFTLTINSLQPEDFATYYCQQADSFPLTFGGGTKVEIK |
| 0.64 | C5A (XPA23) VL Q27T (antibody, V domains shown) VH: EVQLLESGGGLVQPGGSLRLSCAASGFTFSKYFMFWVRQAPGKGLEWVSVISPSGGMTRYADSVKGRFTISRDNSKNTLYLQMNSLRAEDTAVYYCARVGYGGNSDYWGQGTLVTVSS VL: DIQMTQSPSSVSASVGDRLTIICRASTDINRWLAWYQQTPGNAPKLLIHSATSLQSGVPSRFSGSGSGTDFTLTINSLQPEDFATYYCQQADSFPLTFGGGTKVEIK |
| 1.45 | C5A (XPA23) VL D28Y (antibody, V domains shown) VH: EVQLLESGGGLVQPGGSLRLSCAASGFTFSKYFMFWVRQAPGKGLEWVSVISPSGGMTRYADSVKGRFTISRDNSKNTLYLQMNSLRAEDTAVYYCARVGYGGNSDYWGQGTLVTVSS VL: DIQMTQSPSSVSASVGDRLTIICRASQYINRWLAWYQQTPGNAPKLLIHSATSLQSGVPSRFSGSGSGTDFTLTINSLQPEDFATYYCQQADSFPLTFGGGTKVEIK |
| 1 | C5A (XPA23) VL D28N (antibody, V domains shown) VH: EVQLLESGGGLVQPGGSLRLSCAASGFTFSKYFMFWVRQAPGKGLEWVSVISPSGGMTRYADSVKGRFTISRDNSKNTLYLQMNSLRAEDTAVYYCARVGYGGNSDYWGQGTLVTVSS VL: DIQMTQSPSSVSASVGDRLTIICRASQNINRWLAWYQQTPGNAPKLLIHSATSLQSGVPSRFSGSGSGTDFTLTINSLQPEDFATYYCQQADSFPLTFGGGTKVEIK |
| 5.25 | C5A (XPA23) VL D28S (antibody, V domains shown) VH: EVQLLESGGGLVQPGGSLRLSCAASGFTFSKYFMFWVRQAPGKGLEWVSVISPSGGMTRYADSVKGRFTISRDNSKNTLYLQMNSLRAEDTAVYYCARVGYGGNSDYWGQGTLVTVSS VL: DIQMTQSPSSVSASVGDRLTIICRASQSINRWLAWYQQTPGNAPKLLIHSATSLQSGVPSRFSGSGSGTDFTLTINSLQPEDFATYYCQQADSFPLTFGGGTKVEIK |
| 1 | C5A (XPA23) VL N30H (antibody, V domains shown) VH: EVQLLESGGGLVQPGGSLRLSCAASGFTFSKYFMFWVRQAPGKGLEWVSVISPSGGMTRYADSVKGRFTISRDNSKNTLYLQMNSLRAEDTAVYYCARVGYGGNSDYWGQGTLVTVSS VL: DIQMTQSPSSVSASVGDRLTIICRASQDIHRWLAWYQQTPGNAPKLLIHSATSLQSGVPSRFSGSGSGTDFTLTINSLQPEDFATYYCQQADSFPLTFGGGTKVEIK |
| 1.19 | C5A (XPA23) VL D28T (antibody, V domains shown) VH: EVQLLESGGGLVQPGGSLRLSCAASGFTFSKYFMFWVRQAPGKGLEWVSVISPSGGMTRYADSVKGRFTISRDNSKNTLYLQMNSLRAEDTAVYYCARVGYGGNSDYWGQGTLVTVSS VL: DIQMTQSPSSVSASVGDRLTIICRASQTINRWLAWYQQTPGNAPKLLIHSATSLQSGVPSRFSGSGSGTDFTLTINSLQPEDFATYYCQQADSFPLTFGGGTKVEIK |
| 3.3 | C5A (XPA23) VL Q27S (antibody, V domains shown) VH: EVQLLESGGGLVQPGGSLRLSCAASGFTFSKYFMFWVRQAPGKGLEWVSVISPSGGMTRYADSVKGRFTISRDNSKNTLYLQMNSLRAEDTAVYYCARVGYGGNSDYWGQGTLVTVSS VL: DIQMTQSPSSVSASVGDRLTIICRASSDINRWLAWYQQTPGNAPKLLIHSATSLQSGVPSRFSGSGSGTDFTLTINSLQPEDFATYYCQQADSFPLTFGGGTKVEIK |
| 0.72 | C5A (XPA23) VL N30S (antibody, V domains shown) VH: EVQLLESGGGLVQPGGSLRLSCAASGFTFSKYFMFWVRQAPGKGLEWVSVISPSGGMTRYADSVKGRFTISRDNSKNTLYLQMNSLRAEDTAVYYCARVGYGGNSDYWGQGTLVTVSS VL: DIQMTQSPSSVSASVGDRLTIICRASQDISRWLAWYQQTPGNAPKLLIHSATSLQSGVPSRFSGSGSGTDFTLTINSLQPEDFATYYCQQADSFPLTFGGGTKVEIK |
| 0.61 | C5A (XPA23) VL N30K (antibody, V domains shown) VH: EVQLLESGGGLVQPGGSLRLSCAASGFTFSKYFMFWVRQAPGKGLEWVSVISPSGGMTRYADSVKGRFTISRDNSKNTLYLQMNSLRAEDTAVYYCARVGYGGNSDYWGQGTLVTVSS VL: DIQMTQSPSSVSASVGDRLTIICRASQDIKRWLAWYQQTPGNAPKLLIHSATSLQSGVPSRFSGSGSGTDFTLTINSLQPEDFATYYCQQADSFPLTFGGGTKVEIK |
| 0.82 | C5A (XPA23) VL D28K (antibody, V domains shown) VH: EVQLLESGGGLVQPGGSLRLSCAASGFTFSKYFMFWVRQAPGKGLEWVSVISPSGGMTRYADSVKGRFTISRDNSKNTLYLQMNSLRAEDTAVYYCARVGYGGNSDYWGQGTLVTVSS VL: DIQMTQSPSSVSASVGDRLTIICRASQKINRWLAWYQQTPGNAPKLLIHSATSLQSGVPSRFSGSGSGTDFTLTINSLQPEDFATYYCQQADSFPLTFGGGTKVEIK |
| 0.97 | C5A (XPA23) VL N30T (antibody, V domains shown) VH: EVQLLESGGGLVQPGGSLRLSCAASGFTFSKYFMFWVRQAPGKGLEWVSVISPSGGMTRYADSVKGRFTISRDNSKNTLYLQMNSLRAEDTAVYYCARVGYGGNSDYWGQGTLVTVSS VL: DIQMTQSPSSVSASVGDRLTIICRASQDITRWLAWYQQTPGNAPKLLIHSATSLQSGVPSRFSGSGSGTDFTLTINSLQPEDFATYYCQQADSFPLTFGGGTKVEIK |
| 1.23 | C5A (XPA23) VL D28H (antibody, V domains shown) VH: EVQLLESGGGLVQPGGSLRLSCAASGFTFSKYFMFWVRQAPGKGLEWVSVISPSGGMTRYADSVKGRFTISRDNSKNTLYLQMNSLRAEDTAVYYCARVGYGGNSDYWGQGTLVTVSS VL: DIQMTQSPSSVSASVGDRLTIICRASQHINRWLAWYQQTPGNAPKLLIHSATSLQSGVPSRFSGSGSGTDFTLTINSLQPEDFATYYCQQADSFPLTFGGGTKVEIK |
| 0.74 | C5A (XPA23) VL N30R (antibody, V domains shown) VH: EVQLLESGGGLVQPGGSLRLSCAASGFTFSKYFMFWVRQAPGKGLEWVSVISPSGGMTRYADSVKGRFTISRDNSKNTLYLQMNSLRAEDTAVYYCARVGYGGNSDYWGQGTLVTVSS VL: DIQMTQSPSSVSASVGDRLTIICRASQDIRRWLAWYQQTPGNAPKLLIHSATSLQSGVPSRFSGSGSGTDFTLTINSLQPEDFATYYCQQADSFPLTFGGGTKVEIK |
| 0.81 | C5A (XPA23) VL N30D (antibody, V domains shown) VH: EVQLLESGGGLVQPGGSLRLSCAASGFTFSKYFMFWVRQAPGKGLEWVSVISPSGGMTRYADSVKGRFTISRDNSKNTLYLQMNSLRAEDTAVYYCARVGYGGNSDYWGQGTLVTVSS VL: DIQMTQSPSSVSASVGDRLTIICRASQDIDRWLAWYQQTPGNAPKLLIHSATSLQSGVPSRFSGSGSGTDFTLTINSLQPEDFATYYCQQADSFPLTFGGGTKVEIK |
| 1.08 | C5A (XPA23) VL Q27E (antibody, V domains shown) VH: EVQLLESGGGLVQPGGSLRLSCAASGFTFSKYFMFWVRQAPGKGLEWVSVISPSGGMTRYADSVKGRFTISRDNSKNTLYLQMNSLRAEDTAVYYCARVGYGGNSDYWGQGTLVTVSS VL: DIQMTQSPSSVSASVGDRLTIICRASEDINRWLAWYQQTPGNAPKLLIHSATSLQSGVPSRFSGSGSGTDFTLTINSLQPEDFATYYCQQADSFPLTFGGGTKVEIK |
| 0.64 | C5A (XPA23) VL N30E (antibody, V domains shown) VH: EVQLLESGGGLVQPGGSLRLSCAASGFTFSKYFMFWVRQAPGKGLEWVSVISPSGGMTRYADSVKGRFTISRDNSKNTLYLQMNSLRAEDTAVYYCARVGYGGNSDYWGQGTLVTVSS VL: DIQMTQSPSSVSASVGDRLTIICRASQDIERWLAWYQQTPGNAPKLLIHSATSLQSGVPSRFSGSGSGTDFTLTINSLQPEDFATYYCQQADSFPLTFGGGTKVEIK |
| 0.74 | C5A (XPA23) VL D28E (antibody, V domains shown) VH: EVQLLESGGGLVQPGGSLRLSCAASGFTFSKYFMFWVRQAPGKGLEWVSVISPSGGMTRYADSVKGRFTISRDNSKNTLYLQMNSLRAEDTAVYYCARVGYGGNSDYWGQGTLVTVSS VL: DIQMTQSPSSVSASVGDRLTIICRASQEINRWLAWYQQTPGNAPKLLIHSATSLQSGVPSRFSGSGSGTDFTLTINSLQPEDFATYYCQQADSFPLTFGGGTKVEIK |
| 0.89 | C5A (XPA23) VL Q27R (antibody, V domains shown) VH: EVQLLESGGGLVQPGGSLRLSCAASGFTFSKYFMFWVRQAPGKGLEWVSVISPSGGMTRYADSVKGRFTISRDNSKNTLYLQMNSLRAEDTAVYYCARVGYGGNSDYWGQGTLVTVSS VL: DIQMTQSPSSVSASVGDRLTIICRASRDINRWLAWYQQTPGNAPKLLIHSATSLQSGVPSRFSGSGSGTDFTLTINSLQPEDFATYYCQQADSFPLTFGGGTKVEIK |

Source: US20110118447A1
